The values that follow come from patent US20230151091A1 (NEW YORK UNIVERSITY, published 2023).

Where a chain is given by its changes, count along the chain named.

The labels stand for the following.
T1: mouse MuSK, endogenous (C2C12 myotubes; neuromuscular synapses of mice) (mouse, UniProt Q61006 22-868)
T1 sequence (looked up): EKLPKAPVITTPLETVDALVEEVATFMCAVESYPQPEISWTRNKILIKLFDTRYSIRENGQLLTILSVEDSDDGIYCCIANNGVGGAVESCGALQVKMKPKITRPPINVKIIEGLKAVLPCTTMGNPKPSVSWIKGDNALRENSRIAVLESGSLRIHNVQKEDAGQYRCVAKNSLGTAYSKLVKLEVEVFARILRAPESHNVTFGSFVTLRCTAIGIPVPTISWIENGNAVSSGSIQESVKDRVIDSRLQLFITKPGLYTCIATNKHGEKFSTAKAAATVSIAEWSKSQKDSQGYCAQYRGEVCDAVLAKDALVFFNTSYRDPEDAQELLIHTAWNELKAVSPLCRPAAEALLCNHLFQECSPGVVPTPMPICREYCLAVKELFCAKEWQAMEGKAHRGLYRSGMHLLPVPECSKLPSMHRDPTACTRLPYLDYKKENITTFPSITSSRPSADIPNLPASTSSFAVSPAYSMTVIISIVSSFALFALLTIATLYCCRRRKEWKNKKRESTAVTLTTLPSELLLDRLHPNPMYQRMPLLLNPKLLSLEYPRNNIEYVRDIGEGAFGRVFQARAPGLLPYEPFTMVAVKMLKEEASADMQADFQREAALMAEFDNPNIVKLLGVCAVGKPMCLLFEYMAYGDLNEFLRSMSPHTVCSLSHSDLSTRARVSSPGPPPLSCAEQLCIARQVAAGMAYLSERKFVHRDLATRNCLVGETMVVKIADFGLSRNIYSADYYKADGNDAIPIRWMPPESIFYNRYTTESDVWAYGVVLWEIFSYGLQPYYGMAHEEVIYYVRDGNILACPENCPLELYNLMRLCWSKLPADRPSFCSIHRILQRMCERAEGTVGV

T2: rat MuSK (rat, UniProt Q62838 22-494, limits assumed)
T2 construct: Coated on Biacore chip (200RU) or ELISA plate
T2 sequence (looked up): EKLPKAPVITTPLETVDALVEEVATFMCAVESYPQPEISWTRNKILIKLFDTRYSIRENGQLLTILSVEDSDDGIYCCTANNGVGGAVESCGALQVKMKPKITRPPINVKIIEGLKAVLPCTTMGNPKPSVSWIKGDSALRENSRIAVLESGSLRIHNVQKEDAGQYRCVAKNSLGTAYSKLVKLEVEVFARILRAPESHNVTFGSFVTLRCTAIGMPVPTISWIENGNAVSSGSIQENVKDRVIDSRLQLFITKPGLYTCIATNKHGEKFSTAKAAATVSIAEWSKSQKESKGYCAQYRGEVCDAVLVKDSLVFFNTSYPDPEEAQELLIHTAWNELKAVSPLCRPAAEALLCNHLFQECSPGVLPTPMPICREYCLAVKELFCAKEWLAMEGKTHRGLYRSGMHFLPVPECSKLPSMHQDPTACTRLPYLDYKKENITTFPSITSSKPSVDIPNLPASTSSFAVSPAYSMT

T3: mouse MuSK (mouse, UniProt Q61006 22-494, limits assumed)
T3 construct: Coated on ELISA plates or on the Biacore chip; also called full length mouse MuSK; mouse MuSK (in house produced in HEK293 cells)
T3 sequence (looked up): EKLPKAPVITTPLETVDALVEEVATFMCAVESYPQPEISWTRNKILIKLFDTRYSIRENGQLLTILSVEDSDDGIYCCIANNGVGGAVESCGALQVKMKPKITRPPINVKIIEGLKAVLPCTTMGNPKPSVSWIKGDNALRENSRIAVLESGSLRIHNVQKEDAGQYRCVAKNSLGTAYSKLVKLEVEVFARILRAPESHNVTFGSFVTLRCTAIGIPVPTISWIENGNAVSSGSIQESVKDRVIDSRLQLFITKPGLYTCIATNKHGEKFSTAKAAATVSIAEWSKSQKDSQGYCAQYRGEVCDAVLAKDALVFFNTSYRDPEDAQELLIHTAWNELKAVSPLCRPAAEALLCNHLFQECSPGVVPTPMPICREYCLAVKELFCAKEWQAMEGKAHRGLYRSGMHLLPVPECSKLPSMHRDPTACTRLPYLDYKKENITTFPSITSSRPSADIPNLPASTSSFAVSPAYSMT

B1: 3B2g1m4 (antibody, human IgG1, V domains shown)
VH: EVQLLESGGGLVQPGGSLRLSCAASGFTFSDYGMSWVRQAPGKGLEWVSAIPWQGGSTYYKESVKGRFTISRDNSKNTLYLQMNSLRAEDTAVYYCAKRSGRIAFGALDAWGQGTLVTVSS
VL: QTVVTQEPSFSVSPGGTVTLTCGLSSGSVTSSNYPDWYQQTPGQAPRTLIYSTDSRHSGVPDRFSGSILGNKAALTITGAQADDESDYYCGLYMYSGSKNYVFGGGTKLTVL
notes: human IgG1-LALA backbone; produced in HEK293 cells
B2: 3B2g2m4 (antibody, human IgG1, V domains shown)
VH: B1 VH
VL: B1 VL with M94S
notes: as for B1
B3: 3B2g2m2 (antibody, human IgG1, V domains shown)
VH: B1 VH with W53G, Q54S
VL: B1 VL with M94S
notes: as for B1

In the first assay the target is T1, mouse MuSK, endogenous (C2C12 myotubes; …). Kind of assay: cell-based or functional assay.
With B1, the “MuSK phosphorylation in C2C12 myotubes” value is ~58 % of 1 nM agrin.

B2: the “MuSK phosphorylation in C2C12 myotubes” value was ~58 % of 1 nM agrin.

B3: the “MuSK phosphorylation in C2C12 myotubes” value is ~80 % of 1 nM agrin.

The target in a further assay is T2, rat MuSK. Briefly: Biacore, MuSK on chip, association pH 7.4, dissociation pH 5.5. The method, then:
(§1) For affinity determination, a CMS chip was coated with cynomolgus monkey, rat and mouse MuSK (200RU) and 66.7 nM of antibody was applied and kinetic parameters calculated (Table 8). The following conclusions could be drawn: (1) 3B2g1m3 and 3B2g2m3 (m3 variants) show significant drop in affinity for MuSK for all species tested; (2) 3B2g1m2 and 3B2g2m2 (m2 variants) show some drop in affinity for MuSK; (3) 3B2g1m1, 3B2g2m1, 3B2g1m4, 3B2g2m4 (ml and m4 variants) show no drop in affinity for MuSK for all species tested; and (4) for all clones there is no difference between g1 and g2 variants (VL methionine versus serine in CDR3).
(§2) In order to study pH dependent binding of our antibodies to MuSK, the same Biacore was used as above, but now dissociation was done at pH 5.5 instead of pH 7.4. […] The following conclusions could be drawn for the different variants: (1) 3B2g1m3 and 3B2g2m3 (m3 variants) show significant drop in affinity for MuSK for all species tested; (2) 3B2g1m2 and 3B2g2m2 (m2 variants) show some drop in affinity for MuSK; (3) 3B2g1m1, 3B2g2m1, 3B2g1m4, 3B2g2m4 (m1 and m4 variants) show no drop in affinity for MuSK for all species tested; and (4) for all clones there is no difference between g1 and g2 variants (VL methionine versus serine in CDR3).
In general terms: In SPR one partner is held on a chip, and binding of the other changes the refractive index at the surface.
The molecule B1 came in with an R0 of 171 RU, a koff of 0.00558 s⁻¹ and a kon of 950000 M⁻¹ s⁻¹.

Take B2: the R0 came out at 172 RU, the koff came to 0.00538 s⁻¹ and the kon came out at 1.02e+06 M⁻¹ s⁻¹.

Take B3: the R0 came to 145 RU, the koff amounted to 0.0973 s⁻¹ and the kon was 40000 M⁻¹ s⁻¹.

The target in a further assay is T4, cynomolgus monkey MuSK (cynomolgus monkey, UniProt A0A2K5USF6 24-487). The assay is described as above. The method, then: as §1, §2
T4 sequence (A0A2K5USF6 entry or part of it): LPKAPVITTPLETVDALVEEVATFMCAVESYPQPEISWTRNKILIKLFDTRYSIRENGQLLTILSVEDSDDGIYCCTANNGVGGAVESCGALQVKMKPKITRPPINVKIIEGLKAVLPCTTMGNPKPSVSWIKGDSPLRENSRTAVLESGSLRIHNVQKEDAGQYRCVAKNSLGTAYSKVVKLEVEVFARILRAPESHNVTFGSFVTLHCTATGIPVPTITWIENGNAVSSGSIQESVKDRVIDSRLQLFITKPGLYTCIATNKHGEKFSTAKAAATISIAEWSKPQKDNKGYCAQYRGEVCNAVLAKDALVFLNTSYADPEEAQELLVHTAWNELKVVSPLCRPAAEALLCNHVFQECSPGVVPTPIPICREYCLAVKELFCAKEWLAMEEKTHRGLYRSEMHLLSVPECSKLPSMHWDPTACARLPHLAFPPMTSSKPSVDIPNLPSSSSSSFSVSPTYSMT
In the case of B1, the R0 stood at 146 RU, the koff amounted to 0.00261 s⁻¹ and the kon was determined as 680000 M⁻¹ s⁻¹.

Molecule B2 gave an R0 of 148 RU, a koff of 0.00256 s⁻¹ and a kon of 750000 M⁻¹ s⁻¹.

With B3, the R0 came to 146 RU, the koff stood at 0.00326 s⁻¹ and the kon amounted to 860000 M⁻¹ s⁻¹.

A further assay has as its target T3, mouse MuSK. Described as above. As to the method:
as §1, §2
With B1, the R0 was 191 RU, the koff worked out at 0.00304 s⁻¹ and the kon was found to be 980000 M⁻¹ s⁻¹.

In the case of B2, the R0 came out at 191 RU, the koff is 0.003 s⁻¹ and the kon turned out to be 1.04e+06 M⁻¹ s⁻¹.

For the molecule B3, the R0 came to 153 RU, the off-rate (koff) amounted to 0.0882 s⁻¹ and the kon is 210000 M⁻¹ s⁻¹.

For a further assay, the target named is T2, rat MuSK. Briefly: Biacore, MuSK on chip (200RU), 66.7 nM mAb, dissociation pH 7.4. The method, then: as §1
Molecule B1 displayed an R0 of 155 RU, a dissociation rate constant (koff) of 0.00192 s⁻¹ and a kon of 1.12e+06 M⁻¹ s⁻¹.

For B2, the R0 came out at 158 RU, the koff was 0.00196 s⁻¹ and the on-rate (kon) is 1.19e+06 M⁻¹ s⁻¹.

B3 gave an R0 of 130 RU, a koff of 0.00281 s⁻¹ and a kon of 1.56e+06 M⁻¹ s⁻¹.

In a further assay the target is T4, cynomolgus monkey MuSK. Described as above. The method, then: as §1
In turn, B1 had an R0 of 140 RU, a koff of 0.00086 s⁻¹ and an on-rate constant (kon) of 730000 M⁻¹ s⁻¹.

B2: the R0 came to 142 RU, the koff stood at 0.00088 s⁻¹ and the kon is 790000 M⁻¹ s⁻¹.

Turning to B3, the R0 was 136 RU, the koff was found to be 0.00179 s⁻¹ and the kon was 890000 M⁻¹ s⁻¹.

For the next assay, the target named is T3, mouse MuSK. The description is as above. The method, then: as §1
Molecule B1 gave an R0 of 192 RU, a koff of 0.00065 s⁻¹ and a kon of 1.08e+06 M⁻¹ s⁻¹.

Regarding B2, the R0 is 193 RU, the koff was 0.00064 s⁻¹ and the kon amounted to 1.15e+06 M⁻¹ s⁻¹.

For B3, the R0 is 158 RU, the koff turned out to be 0.00231 s⁻¹ and the kon was 1.71e+06 M⁻¹ s⁻¹.

For orientation: koff means the rate constant with which the complex falls apart. By kon is commonly meant a measure of how fast the partners come together.
